Positions count from the first letter of the chain named.
B1: Y^78A Tsa1 (recombinant, 6X-His tagged) (enzyme, S. cerevisiae)
chain: MVAQVQKQAPTFKKTAVVDGVFDEVSLDKYKGKYVVLAFIPLAFTFVCPTEIIAFSEAAKKFEEQGAQVLFASTDSEASLLAWTNIPRKEGGLGPINIPLLADTNHSLSRDYGVLIEEEGVALRGLFIIDPKGVIRHITINDLPVGRNVDEALRLVEAFQWTDKNGTVLPCNWTPGAATIKPTVEDSKEYFEAANK
B2: Y^78L Tsa1 (recombinant, 6X-His tagged) (enzyme, S. cerevisiae)
chain: B1 chain with A78L
B3: F^44L Tsa1 (recombinant, 6X-His tagged) (enzyme, S. cerevisiae)
chain: B1 chain with F44L, A78Y
B4: FYL Tsa1 (F^44L,Y^78L; recombinant, 6X-His tagged) (enzyme, S. cerevisiae)
chain: B1 chain with F44L, A78L
B5: FYA Tsa1 (F^44A,Y^78A; recombinant, 6X-His tagged) (enzyme, S. cerevisiae)
chain: B1 chain with F44A
B6: wild-type Tsa1 (recombinant, 6X-His tagged) (enzyme, S. cerevisiae)
chain: B1 chain with A78Y
B7: F^44A Tsa1 (recombinant, 6X-His tagged) (enzyme, S. cerevisiae)
chain: B1 chain with F44A, A78Y

Target: the molecule itself
Test: SEC-MALS

Protein | stoichiometry N
B1 | 2
B2 | 2
B3 | 2
B4 | 2
B5 | 2

Target: the molecule itself
Test: native gel or EMSA

Protein | stoichiometry N
B6 | 10
B7 | 2

Reference: paper PMC7036284 (Chemical research in toxicology, 2019)
